Measurements published in publication PMC3169591.

Columns and labels:
[1] = target: Klebsiella pneumoniae PriB (full-length, 104-amino acid protein) (Klebsiella pneumoniae (strain MGH78578)); assay: SEC; each protein applied alone at approximately 3.4 g/l to a HiPrep HR 16/10 sephacryl S-100 column, 0.35 ml/min, 10 mM Tris-HCl pH 8, 10% glycerol, 0.5 M NaCl, 1 mM beta-mercaptoethanol; column calibrated with protein standards of known molecular weight
PriB = PriB (Klebsiella pneumoniae MGH78578, UniProt A6THB2 1-104); assay: fluorescence anisotropy; apparent Kd; 1 mM Mg2+; 20 mM Tris-HCl pH 8, 50 mM NaCl, 4% glycerol, 1 mM MgCl2, 1 mM beta-mercaptoethanol, 0.1 mg/ml BSA, 1 nM DNA, 25 C; details: protein: recombinant; tags: N-terminal His6 (pET28b); chain copies: 2; label: 3'-fluorescein; single strand
PriB, sequence (A6THB2 whole entry): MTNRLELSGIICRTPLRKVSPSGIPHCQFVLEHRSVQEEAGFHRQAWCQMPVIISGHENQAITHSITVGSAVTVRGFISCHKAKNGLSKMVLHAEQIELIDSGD

Klebsiella pneumoniae PriB (full-length, 104-amino acid protein) (natural protein), sequence (A6THB2 whole entry): as above

Molecule | stoichiometry N [1] | Kd (PriB)
Klebsiella pneumoniae PriB (full-length, 104-amino acid protein) (natural protein) | 2 | 
TAGCAATGTAATCGT (ssDNA) [15-mer] |  | 50 ± 3 nM
GCGTGGGTAATTGTGCTTCAATGGACTGAC (ssDNA) [30-mer] |  | 45 ± 7 nM
GCCGTGATCACCAATGCAGATTGACGAACCTTTGCTCCAGTAACC (ssDNA) [45-mer] |  | 62 ± 14 nM
